The data set addresses T1, NM Cas9 (Neisseria meningitidis) (UniProt C9X1G5).
T1 sequence: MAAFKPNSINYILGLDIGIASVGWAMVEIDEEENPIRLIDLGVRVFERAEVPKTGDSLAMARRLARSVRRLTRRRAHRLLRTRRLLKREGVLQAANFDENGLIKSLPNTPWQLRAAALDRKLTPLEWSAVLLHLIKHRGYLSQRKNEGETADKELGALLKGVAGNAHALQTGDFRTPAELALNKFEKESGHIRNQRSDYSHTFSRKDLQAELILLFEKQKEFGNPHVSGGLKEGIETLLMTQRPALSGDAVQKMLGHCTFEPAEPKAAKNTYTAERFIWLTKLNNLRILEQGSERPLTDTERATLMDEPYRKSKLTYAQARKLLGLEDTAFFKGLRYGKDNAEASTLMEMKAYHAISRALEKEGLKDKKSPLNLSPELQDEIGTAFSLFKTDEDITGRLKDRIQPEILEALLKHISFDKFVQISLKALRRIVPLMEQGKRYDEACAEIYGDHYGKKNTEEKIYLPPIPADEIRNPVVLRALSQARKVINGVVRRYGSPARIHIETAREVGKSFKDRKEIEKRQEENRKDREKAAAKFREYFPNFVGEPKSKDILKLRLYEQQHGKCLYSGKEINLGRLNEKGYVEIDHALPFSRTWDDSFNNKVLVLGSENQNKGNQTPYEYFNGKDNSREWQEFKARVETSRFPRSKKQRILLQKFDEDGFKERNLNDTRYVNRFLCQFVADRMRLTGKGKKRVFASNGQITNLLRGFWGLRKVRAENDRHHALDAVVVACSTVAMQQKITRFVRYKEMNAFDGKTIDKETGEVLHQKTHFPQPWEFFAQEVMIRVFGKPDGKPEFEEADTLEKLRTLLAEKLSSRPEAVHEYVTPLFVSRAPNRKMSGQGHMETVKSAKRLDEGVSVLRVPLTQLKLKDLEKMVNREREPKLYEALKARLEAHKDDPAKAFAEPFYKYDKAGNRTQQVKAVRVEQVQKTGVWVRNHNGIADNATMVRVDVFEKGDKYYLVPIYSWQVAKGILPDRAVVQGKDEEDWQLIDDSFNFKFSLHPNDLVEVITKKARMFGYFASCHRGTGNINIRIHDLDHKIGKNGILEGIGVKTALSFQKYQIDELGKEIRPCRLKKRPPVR
Kind of data set: cell_activity. As to conditions: PAM NCCAGGTN depleted only 4-fold; protospacer for this value not stated.

Data on one sequence can be found in patent US20150259684.

“UACCAUCUCAAGCUUGUUGAGUUGUAGCUCCCUUUCUCAUUUCGCAGUGCUACAAU / TACCATCTCAAGCTTGTTGANCCAGGTN / NACCTGGNTCAACAAGCTTGAGATGGTA” yielded an activity (fold depletion) of 4.
